According to publication PMC2919228 (Molecular cell, 2010):

Biological target: Skp1-GST/Cdc4-HA (Saccharomyces cerevisiae, UniProt P52286 1-194; P07834 1-779)
Test: pull-down

Sequence of Skp1-GST/Cdc4-HA (P52286 whole entry, chain 1 of 2): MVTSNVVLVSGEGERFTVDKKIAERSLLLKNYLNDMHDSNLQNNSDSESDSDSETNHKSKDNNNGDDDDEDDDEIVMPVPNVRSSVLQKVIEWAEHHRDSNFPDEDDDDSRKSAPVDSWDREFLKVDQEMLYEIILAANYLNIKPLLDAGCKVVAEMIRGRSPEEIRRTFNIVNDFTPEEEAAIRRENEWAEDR
Sequence of Skp1-GST/Cdc4-HA (P07834 whole entry, chain 2 of 2): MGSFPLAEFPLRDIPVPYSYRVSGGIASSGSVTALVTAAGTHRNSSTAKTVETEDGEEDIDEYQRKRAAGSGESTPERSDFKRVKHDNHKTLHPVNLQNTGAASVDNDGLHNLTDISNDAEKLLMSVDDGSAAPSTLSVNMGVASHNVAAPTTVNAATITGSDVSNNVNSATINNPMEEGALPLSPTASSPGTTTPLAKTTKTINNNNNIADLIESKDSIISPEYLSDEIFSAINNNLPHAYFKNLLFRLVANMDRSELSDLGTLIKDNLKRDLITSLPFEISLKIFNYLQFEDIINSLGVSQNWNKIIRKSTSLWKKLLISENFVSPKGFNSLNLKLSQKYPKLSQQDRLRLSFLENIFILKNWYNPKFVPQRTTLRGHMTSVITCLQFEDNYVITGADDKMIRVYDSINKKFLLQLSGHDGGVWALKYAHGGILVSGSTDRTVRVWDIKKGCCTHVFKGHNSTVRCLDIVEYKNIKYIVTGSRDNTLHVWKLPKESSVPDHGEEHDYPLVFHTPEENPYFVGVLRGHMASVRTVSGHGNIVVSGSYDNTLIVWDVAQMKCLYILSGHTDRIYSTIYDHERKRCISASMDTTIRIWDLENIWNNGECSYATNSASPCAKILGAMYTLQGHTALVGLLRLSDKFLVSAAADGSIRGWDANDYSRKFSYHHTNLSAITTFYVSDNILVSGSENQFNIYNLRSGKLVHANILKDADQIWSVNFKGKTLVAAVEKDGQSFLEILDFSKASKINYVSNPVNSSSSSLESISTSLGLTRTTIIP

binding result: binds
B1: Gpa1-Flag (natural protein, Saccharomyces cerevisiae, UniProt P08539 1-472, looked up)
chain: MGCTVSTQTIGDESDPFLQNKRANDVIEQSLQLEKQRDKNEIKLLLLGAGESGKSTVLKQLKLLHQGGFSHQERLQYAQVIWADAIQSMKILIIQARKLGIQLDCDDPINNKDLFACKRILLKAKALDYINASVAGGSDFLNDYVLKYSERYETRRRVQSTGRAKAAFDEDGNISNVKSDTDRDAETVTQNEDADRNNSSRINLQDICKDLNQEGDDQMFVRKTSREIQGQNRRNLIHEDIAKAIKQLWNNDKGIKQCFARSNEFQLEGSAAYYFDNIEKFASPNYVCTDEDILKGRIKTTGITETEFNIGSSKFKVLDAGGQRSERKKWIHCFEGITAVLFVLAMSEYDQMLFEDERVNRMHESIMLFDTLLNSKWFKDTPFILFLNKIDLFEEKVKSMPIRKYFPDYQGRVGDAEAGLKYFEKIFLSLNKTNKPIYVKRTCATDTQTMKFVLSAVTDLIIQQNLKKIGII
